From patent US20090099029

T1: Bovine, dephosphorylated, Myelin Basic Protein (MBP), P02687
T1 chain: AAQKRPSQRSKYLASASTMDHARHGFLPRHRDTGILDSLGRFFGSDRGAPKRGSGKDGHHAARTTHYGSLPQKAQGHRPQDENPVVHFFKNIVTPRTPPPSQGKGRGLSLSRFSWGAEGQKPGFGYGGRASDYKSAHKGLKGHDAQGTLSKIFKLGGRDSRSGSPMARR

B1: ROCK1 (protein)
chain: MSTGDSFETRFEKMDNLLRDPKSEVNSDCLLDGLDALVYDLDFPALRKNKNIDNFLSRYKDTINKIRDLRMKAEDYEVVKVIGRGAFGEVQLVRHKSTRKVYAMKLLSKFEMIKRSDSAFFWEERDIMAFANSPWVVQLFYAFQDDRYLYMVMEYMPGGDLVNLMSNYDVPEKWARFYTAEVVLALDAIHSMGFIHRDVKPDNMLLDKSGHLKLADFGTCMKMNKEGMVRCDTAVGTPDYISPEVLKSQGGDGYYGRECDWWSVGVFLYEMLVGDTPFYADSLVGTYSKIMNHKNSLTFPDDNDISKEAKNLICAFLTDREVRLGRNGVEEIKRHLFFKNDQWAWETLRDTVAPVVPDLSSDIDTSNFDDLEEDKGEEETFPIPKAFVGNQLPFVGFTYYSNRRYLSSANPNDNRTSSNADKSLQESLQKTIYKLEEQLHNEMQLKDEMEQKCRTSNIKLDKIMKELDEEGNQRRNLESTVSQIEKEKMLLQHRINEYQRKAEQENEKRRNVENEVSTLKDQLEDLKKVSQNSQL
B2: EPHB3 (protein)
chain: CLRKQRHGSDSEYTEKLQQYIAPGMKVYIDPFTYEDPNEAVREFAKEIDVSCVKIEEVIGAGEFGEVCRGRLKQPGRREVFVAIKTLKVGYTERQRRDFLSEASIMGQFDHPNIIRLEGVVTKSRPVMILTEFMENCALDSFLRLNDGQFTVIQLVGMLRGIAAGMKYLSEMNYVHRDLAARNILVNSNLVCKVSDFGLSRFLEDDPSDPTYTSSLGGKIPIRWTAPEAIAYRKFTSASDVWSYGIVMWEVMSYGERPYWDMSNQDVINAVEQDYRLPPPMDCPTALHQLMLDCWVRDRNLRPKFSQIVNTLDKLIRNAASLKVIASAQSGMSQPLLDRTVPDYTTFTTVGDWLDAIKMGRYKESFVSAGFASFDLVAQMTAEDLLRIGVTLAGHQKKILSSIQDMRLQMNQTLPVQV
B3: ROCK2 (protein)
chain: MSRPPPTGKMPGAPETAPGDGAGASRQRKLEALIRDPRSPINVESLLDGLNSLVLDLDFPALRKNKNIDNFLNRYEKIVKKIRGLQMKAEDYDVVKVIGRGAFGEVQLVRHKASQKVYAMKLLSKFEMIKRSDSAFFWEERDIMAFANSPWVVQLFYAFQDDRYLYMVMEYMPGGDLVNLMSNYDVPEKWAKFYTAEVVLALDAIHSMGLIHRDVKPDNMLLDKHGHLKLADFGTCMKMDETGMVHCDTAVGTPDYISPEVLKSQGGDGFYGRECDWWSVGVFLYEMLVGDTPFYADSLVGTYSKIMDHKNSLCFPEDAEISKHAKNLICAFLTDREVRLGRNGVEEIRQHPFFKNDQWHWDNIRETAAPVVPELSSDIDSSNFDDIEDDKGDVETFPIPKAFVGNQLPFIGFTYYRENLLLSDSPSCRETDSIQSRKNEESQEIQKKLYTLEEHLSNEMQAKEELEQKCKSVNTRLEKTAKELEEEITLRKSVESALRQLEREKALLQHKNAEYQRKADHEADKKRNLENDVNSLKDQLEDLKKRNQNSQI
B4: PRKD1(PKD) (protein)
chain: MSAPPVLRPPSPLLPVAAAAAAAAAALVPGSGPGPAPFLAPVAAPVGGISFHLQIGLSREPVLLLQDSSGDYSLAHVREMACSIVDQKFPECGFYGMYDKILLFRHDPTSENILQLVKAASDIQEGDLIEVVLSASATFEDFQIRPHALFVHSYRAPAFCDHCGEMLWGLVRQGLKCEGCGLNYHKRCAFKIPNNCSGVRRRRLSNVSLTGVSTIRTSSAELSTSAPDEPLLQKSPSESFIGREKRSNSQSYIGRPIHLDKILMSKVKVPHTFVIHSYTRPTVCQYCKKLLKGLFRQGLQCKDCRFNCHKRCAPKVPNNCLGEVTINGDLLSPGAESDVVMEEGSDDNDSERNSGLMDDMEEAMVQDAEMAMAECQNDSGEMQDPDPDHEDANRTISPSTSNNIPLMRVVQSVKHTKRKSSTVMKEGWMVHYTSKDTLRKRHYWRLDSKCITLFQNDTGSRYYKEIPLSEILSLEPVKTSALIPNGANPHCFEITTANVVYYVGENVVNPSSPSPNNSVLTSGVGADVARMWEIAIQHALMPVIPKGSSVGTGTNLHRDISVSISVSNCQIQENVDISTVYQIFPDEVLGSGQFGIVYGGKHRKTGRDVAIKIIDKLRFPTKQESQLRNEVAILQNLHHPGVVNLECMFETPERVFVVMEKLHGDMLEMILSSEKGRLPEHITKFLITQILVALRHLHFKNIVHCDLKPENVLLASADPFPQVKLCDFGFARIIGEKSFRRSVVGTPAYLAPEVLRNKGYNRSLDMWSVGVIIYVSLSGTFPFNEDEDIHDQIQNAAFMYPPNPWKEISHEAIDLINNLLQVKMRKRYSVDKTLSHPWLQDYQTWLDLRELECKIGERYITHESDDLRWEKYAGEQGLQYPTHLINPSASHSDTPETEETEMKALGERVSIL
B5: PRKCN(PKD3) (protein)
chain: MSANNSPPSAQKSVLPTAIPAVLPAASPCSSPKTGLSARLSNGSFSAPSLTNSRGSVHTVSFLLQIGLTRESVTIEAQELSLSAVKDLVCSIVYQKFPECGFFGMYDKILLFRHDMNSENILQLITSADEIHEGDLVEVVLSALATVEDFQIRPHTLYVHSYKAPTFCDYCGEMLWGLVRQGLKCEGCGLNYHKRCAFKIPNNCSGVRKRRLSNVSLPGPGLSVPRPLQPEYVALPSEESHVHQEPSKRIPSWSGRPIWMEKMVMCRVKVPHTFAVHSYTRPTICQYCKRLLKGLFRQGMQCKDCKFNCHKRCASKVPRDCLGEVTFNGEPSSLGTDTDIPMDIDNNDINSDSSRGLDDTEEPSPPEDKMFFLDPSDLDVERDEEAVKTISPSTSNNIPLMRVVQSIKHTKRKSSTMVKEGWMVHYTSRDNLRKRHYWRLDSKCLTLFQNESGSKYYKEIPLSEILRISSPRDFTNISQGSNPHCFEIITDTMVYFVGENNGDSSHNPVLAATGVGLDVAQSWEKAIRQALMPVTPQASVCTSPGQGKDHKDLSTSISVSNCQIQENVDISTVYQIFADEVLGSGQFGIVYGGKHRKTGRDVAIKVIDKMRFPTKQESQLRNEVAILQNLHHPGIVNLECMFETPERVFVVMEKLHGDMLEMILSSEKSRLPERITKFMVTQILVALRNLHFKNIVHCDLKPENVLLASAEPFPQVKLCDFGFARIIGEKSFRRSVVGTPAYLAPEVLRSKGYNRSLDMWSVGVIIYVSLSGTFPFNEDEDINDQIQNAAFMYPPNPWREISGEAIDLINNLLQVKMRKRYSVDKSLSHPWLQDYQTWLDLREFETRIGERYITHESDDARWEIHAYTHNLVYPKHFIMAPNPDDMEEDP
B6: PRKX (protein)
chain: MEAPGLAQAAAAESDSRKVAEETPDGAPALCPSPEALSPEPPVYSLQDFDTLATVGTGTFGRVHLVKEKTAKHFFALKVMSIPDVIRLKQEQHVHNEKSVLKEVSHPFLIRLFWTWHDERFLYMLMEYVPGGELFSYLRNRGRFSSTTGLFYSAEIICAIEYLHSKEIVYRDLKPENILLDRDGHIKLTDFGFAKKLVDRTWTLCGTPEYLAPEVIQSKGHGRAVDWWALGILIFEMLSGFPPFFDDNPFGIYQKILAGKIDFPRHLDFHVKDLIKKLLVVDRTRRLGNMKNGANDVKHHRWFRSVDWEAVPQRKLKPPIVPKIAGDGDTSNFETYPENDWDTAAPVPQKDLEIFKNF
B7: PRKCZ (protein)
chain: MPSRTGPKMEGSGGRVRLKAHYGGDIFITSVDAATTFEELCEEVRDMCRLHQQHPLTLKWVDSEGDPCTVSSQMELEEAFRLARQCRDEGLIIHVFPSTPEQPGLPCPGEDKSIYRRGARRWRKLYRANGHLFQAKRFNRRAYCGQCSERIWGLARQGYRCINCKLLVHKRCHGLVPLTCRKHMDSVMPSQEPPVDDKNEDADLPSEETDGIAYISSSRKHDSIKDDSEDLKPVIDGMDGIKISQGLGLQDFDLIRVIGRGSYAKVLLVRLKKNDQIYAMKVVKKELVHDDEDIDWVQTEKHVFEQASSNPFLVGLHSCFQTTSRLFLVIEYVNGGDLMFHMQRQRKLPEEHARFYAAEICIALNFLHERGIIYRDLKLDNVLLDADGHIKLTDYGMCKEGLGPGDTTSTFCGTPNYIAPEILRGEEYGFSVDWWALGVLMFEMMAGRSPFDIITDNPDMNTEDYLFQVILEKPIRIPRFLSVKASHVLKGFLNKDPKERLGCRPQTGFSDIKSHAFFRSIDWDLLEKKQALPPFQPQITDDYGLDNFDTQFTSEPVQLTPDDEDAIKRIDQSEFEGFEYINPLLLSTEESV
B8: PRKD2(PKD2) (protein)
chain: MATAPSYPAGLPGSPGPGSPPPPGGLELQSPPPLLPQIPAPGSGVSFHIQIGLTREFVLLPAASELAHVKQLACSIVDQKFPECGFYGLYDKILLFKHDPTSANLLQLVRSSGDIQEGDLVEVVLSASATFEDFQIRPHALTVHSYRAPAFCDHCGEMLFGLVRQGLKCDGCGLNYHKRCAFSIPNNCSGARKRRLSSTSLASGHSVRLGTSESLPCTAEELSRSTTELLPRRPPSSSSSSSASSYTGRPIELDKMLLSKVKVPHTFLIHSYTRPTVCQACKKLLKGLFRQGLQCKDCKFNCHKRCATRVPNDCLGEALINGDVPMEEATDFSEADKSALMDESEDSGVIPGSHSENALHASEEEEGEGGKAQSSLGYIPLMRVVQSVRHTTRKSSTTLREGWVVHYSNKDTLRKRHYWRLDCKCITLFQNNTTNRYYKEIPLSEILTVESAQNFSLVPPGTNPHCFEIVTANATYFVGEMPGGTPGGPSGQGAEAARGWETAIRQALMPVILQDAPSAPGHAPHRQASLSISVSNSQIQENVDIATVYQIFPDEVLGSGQFGVVYGGKHRKTGRDVAVKVIDKLRFPTKQESQLRNEVAILQSLRHPGIVNLECMFETPEKVFVVMEKLHGDMLEMILSSEKGRLPERLTKFLITQILVALRHLHFKNIVHCDLKPENVLLASADPFPQVKLCDFGFARIIGEKSFRRSVVGTPAYLAPEVLLNQGYNRSLDMWSVGVIMYVSLSGTFPFNEDEDINDQIQNAAFMYPASPWSHISAGAIDLINNLLQVKMRKRYSVDKSLSHPWLQEYQTWLDLRELEGKMGERYITHESDDARWEQFAAEHPLPGSGLPTDRDLGGACPPQDHDMQGLAERISVL
B9: PRKCQ (protein)
chain: MSPFLRIGLSNFDCGSCQSCQGEAVNPYCAVLVKEYVESENGQMYIQKKPTMYPPWDSTFDAHINKGRVMQIIVKGKNVDLISETTVELYSLAERCRKNNGKTEIWLELKPQGRMLMNARYFLEMSDTKDMNEFETEGFFALHQRRGAIKQAKVHHVKCHEFTATFFPQPTFCSVCHEFVWGLNKQGYQCRQCNAAIHKKCIDKVIAKCTGSAINSRETMFHKERFKIDMPHRFKVYNYKSPTFCEHCGTLLWGLARQGLKCDACGMNVHHRCQTKVANLCGINQKLMAEALAMIESTQQARCLRDTEQIFREGPVEIGLPCSIKNEARPPCLPTPGKREPQGISWESPLDEVDKMCHLPEPELNKERPSLQIKLKIEDFILHKMLGKGSFGKVFLAEFKKTNQFFAIKALKKDVVLMDDDVECTMVEKRVLSLAWEHPFLTHMFCTFQTKENLFFVMEYLNGGDLMYHIQSCHKFDLSRATFYAAEIILGLQFLHSKGIVYRDLKLDNILLDKDGHIKIADFGMCKENMLGDAKTNTFCGTPDYIAPEILLGQKYNHSVDWWSFGVLLYEMLIGQSPFHGQDEEELFHSIRMDNPFYPRWLEKEAKDLLVKLFVREPEKRLGVRGDIRQHPLFREINWEELERKEIDPPFRPKVKSPFDCSNFDKEFLNEKPRLSFADRALINSMDQNMFRNFSFMNPGMERLIS

Target: T1, Bovine, dephosphorylated, Myelin Basic …

Protein | MBP Kinase Activity
B1 | Strong
B2 | Strong
B3 | Strong
B4 | Weak
B5 | Weak
B6 | Negative
B7 | Strong
B8 | Strong
B9 | Strong
